Reference: patent US7019123
Each block holds one substance with its values, some of them ahead of it.

What was measured:
[1] = biological target: bovine trypsin (bovine) (UniProt P00760); experiment: enzyme inhibition; trypsin 48.5 pM
[2] = biological target: human plasmin (human) (UniProt P00747); experiment: enzyme inhibition; human plasmin 50 pM
[3] = biological target: human plasma kallikrein (human) (UniProt P03952); experiment: enzyme inhibition; apparent Ki
[4] = biological target: bovine pancreatic kallikrein (bovine); experiment: enzyme inhibition; bovine pancreatic kallikrein 92.0 pM
[5] = biological target: bovine pancreatic kallikrein (bovine); experiment: enzyme inhibition, tight-binding fit; bovine pancreatic kallikrein 92 pM, PFR-AMC
[6] = biological target: bovine pancreatic kallikrein (bovine); experiment: enzyme inhibition; comparison of Ki values with aprotinin

bovine trypsin (bovine), sequence (P00760 24-246): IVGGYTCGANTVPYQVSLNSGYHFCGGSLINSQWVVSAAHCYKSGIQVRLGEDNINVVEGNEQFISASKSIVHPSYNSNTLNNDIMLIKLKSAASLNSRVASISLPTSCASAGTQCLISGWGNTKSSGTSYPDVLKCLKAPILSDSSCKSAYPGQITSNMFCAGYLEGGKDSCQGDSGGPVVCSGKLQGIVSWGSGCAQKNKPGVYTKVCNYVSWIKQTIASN
human plasmin (human), sequence (P00747 97-810 limits assumed): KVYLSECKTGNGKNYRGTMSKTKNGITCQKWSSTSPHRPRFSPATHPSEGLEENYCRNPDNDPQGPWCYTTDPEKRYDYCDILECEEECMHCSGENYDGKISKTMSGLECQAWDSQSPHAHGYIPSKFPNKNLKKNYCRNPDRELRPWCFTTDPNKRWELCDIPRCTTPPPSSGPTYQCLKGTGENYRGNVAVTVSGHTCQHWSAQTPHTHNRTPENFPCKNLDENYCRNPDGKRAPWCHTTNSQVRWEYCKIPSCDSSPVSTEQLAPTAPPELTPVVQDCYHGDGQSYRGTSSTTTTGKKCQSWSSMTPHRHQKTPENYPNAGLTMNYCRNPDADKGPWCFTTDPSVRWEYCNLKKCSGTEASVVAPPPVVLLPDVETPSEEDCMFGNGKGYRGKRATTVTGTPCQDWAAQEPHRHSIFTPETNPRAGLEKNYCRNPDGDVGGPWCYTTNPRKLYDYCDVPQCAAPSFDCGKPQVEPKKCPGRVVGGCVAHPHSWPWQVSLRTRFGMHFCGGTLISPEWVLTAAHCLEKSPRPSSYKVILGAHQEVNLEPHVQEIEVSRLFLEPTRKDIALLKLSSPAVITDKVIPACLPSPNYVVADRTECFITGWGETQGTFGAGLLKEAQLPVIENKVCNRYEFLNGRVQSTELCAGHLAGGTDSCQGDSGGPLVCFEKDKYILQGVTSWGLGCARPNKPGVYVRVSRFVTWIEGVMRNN
human plasma kallikrein (human), sequence (P03952 20-638 limits assumed): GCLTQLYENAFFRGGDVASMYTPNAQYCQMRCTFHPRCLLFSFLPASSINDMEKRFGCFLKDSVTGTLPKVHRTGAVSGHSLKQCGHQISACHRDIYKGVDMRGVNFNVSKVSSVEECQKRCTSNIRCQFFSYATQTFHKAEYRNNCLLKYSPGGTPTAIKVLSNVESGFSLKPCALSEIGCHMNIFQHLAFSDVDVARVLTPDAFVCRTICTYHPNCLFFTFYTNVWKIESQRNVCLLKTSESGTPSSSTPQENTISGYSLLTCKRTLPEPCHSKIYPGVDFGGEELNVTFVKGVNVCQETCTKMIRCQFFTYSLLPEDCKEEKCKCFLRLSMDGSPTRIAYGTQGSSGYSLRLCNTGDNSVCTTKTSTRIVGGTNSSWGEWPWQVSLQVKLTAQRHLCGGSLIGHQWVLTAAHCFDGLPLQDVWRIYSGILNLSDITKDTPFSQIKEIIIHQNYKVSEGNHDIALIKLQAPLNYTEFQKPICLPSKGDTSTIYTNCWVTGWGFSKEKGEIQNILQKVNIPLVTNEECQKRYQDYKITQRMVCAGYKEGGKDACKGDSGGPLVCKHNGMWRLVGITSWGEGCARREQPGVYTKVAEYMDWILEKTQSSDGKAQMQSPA

Ki [1]: 0.13 nM | Ki [2]: 1.9 nM
Substance: native human placental bikunin isolated from placenta (from UniProt O43291 28-203)

Ki [3]: 0.35 nM
Substance: recombinant placental bikunin (102-159) expressed in yeast SC101 (from UniProt O43291 129-186)

Ki [4]: 0.4 nM
Substance: synthetic placental bikunin (7-64), first preparation (from UniProt O43291 34-91)

Ki [5]: 0.4 nM | Ki [4]: 0.4 nM | fold higher Ki than aprotinin [6]: 20 fold
Substance: synthetic placental bikunin (102-159) (from UniProt O43291 129-186)
